In the supplement of paper PMC7125110:
± gives the standard error. This sample holds only a part of the variants without activity.

B1: glmS ribozyme (parent)
chain: AUAAAAGCGCCAGAACUACAGAAAUGUAGUUGACGAGGAGGAGGUUUAUCGAAUUUUCGGCGGAUGCCUCCAAA

Legend:
Conditions in all cases: with glucosamine-6-phosphate
glucosamine-6-phosphate [1] = variants of: B1; assay: self-cleavage kobs at 40 uM GlcN6P; higher = faster cleavage; RNA array
In short: (§1)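 Barcoded ribozyme variants were transcribed in situ on sequenced MiSeq chips by E. coli RNA polymerase. At 37 °C, a hybridised Cy3 probe tracked them while glucosamine-6-phosphate (40 μM to 10 mM) in HEPES/KCl/Mg(OAc)2 buffer flowed in and tiles were imaged over ~14 h. Per-tile medians of signals normalised to baseline and to non-cleaving reference variants were fit to one- or two-exponential decays, giving kobs. kcat and KM came from weighted Michaelis–Menten fits across concentrations.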

glucosamine-6-phosphate [2] = variants of: B1; assay: self-cleavage kobs at 2500 uM GlcN6P; higher = faster cleavage; RNA array
In short: as §1

glucosamine-6-phosphate [3] = variants of: B1; assay: self-cleavage kobs at 10000 uM GlcN6P; higher = faster cleavage; RNA array
In short: as §1

glucosamine-6-phosphate [4] = variants of: B1; assay: self-cleavage kobs at 160 uM GlcN6P; higher = faster cleavage; RNA array
In short: as §1

glucosamine-6-phosphate [5] = variants of: B1; assay: self-cleavage kobs at 640 uM GlcN6P; higher = faster cleavage; RNA array
In short: as §1

Variant	self-cleavage kobs at 40 uM GlcN6P (glucosamine-6-phosphate [1]) [s⁻¹]	self-cleavage kobs at 2500 uM GlcN6P (glucosamine-6-phosphate [2]) [s⁻¹]	self-cleavage kobs at 10000 uM GlcN6P (glucosamine-6-phosphate [3]) [s⁻¹]	self-cleavage kobs at 160 uM GlcN6P (glucosamine-6-phosphate [4]) [s⁻¹]	self-cleavage kobs at 640 uM GlcN6P (glucosamine-6-phosphate [5]) [s⁻¹]
C34U U65A C67G	0.000176 ± 7.1e-05				
G32C G40A A53C	< 1e-05	< 1e-05	< 1e-05		
A33U A42U C61U	< 1e-05				
A33G C34A	< 1e-05		< 1e-05		
A33C A64C C68U	< 1e-05	< 1e-05	< 1e-05	< 1e-05	< 1e-05
A33C G62C	< 1e-05	< 1e-05	< 1e-05		< 1e-05
A33G G63A U65G	< 1e-05				
C34U G40A	< 1e-05	< 1e-05	< 1e-05		
C34A A39G A64C	< 1e-05	< 1e-05	< 1e-05		< 1e-05
C34U G37C A53G	< 1e-05				
U31G A39C G44C	< 1e-05				
C34A G62C	< 1e-05	< 1e-05	< 1e-05	< 1e-05	< 1e-05
A33U A36G G41C A53G	< 1e-05		< 1e-05		
A33G G41U	< 1e-05		< 1e-05	< 1e-05	< 1e-05
A33G G41A	< 1e-05		< 1e-05	< 1e-05	
G32C G41A A52C	< 1e-05	< 1e-05		< 1e-05	
C34A G41C A53G U54A U56G	< 1e-05		< 1e-05		
G32U C50G C68G	0.00012 ± 2.5e-05		9.96e-05 ± 1.7e-05		
G32C G43U U47C	< 1e-05				
U31G C34U	< 1e-05		< 1e-05	< 1e-05	< 1e-05
C34A G41U G62A	< 1e-05		< 1e-05		
A33C C58A G62A	< 1e-05				
U31G C50G	6.22e-05 ± 1.5e-05	0.00013 ± 1.9e-05	3.31e-05 ± 1.1e-05	0.000172 ± 3e-05	0.000175 ± 4.5e-05
C34U G40C G51U C61A G63U	< 1e-05				

Variant	self-cleavage kobs at 40 uM GlcN6P (glucosamine-6-phosphate [1]) [s⁻¹]	self-cleavage kobs at 2500 uM GlcN6P (glucosamine-6-phosphate [2]) [s⁻¹]	self-cleavage kobs at 10000 uM GlcN6P (glucosamine-6-phosphate [3]) [s⁻¹]	self-cleavage kobs at 160 uM GlcN6P (glucosamine-6-phosphate [4]) [s⁻¹]	self-cleavage kobs at 640 uM GlcN6P (glucosamine-6-phosphate [5]) [s⁻¹]
G32C C34U A64G C68G	< 1e-05		< 1e-05		
G32U A36G G59A	< 1e-05	< 1e-05	< 1e-05		
A33U U49A C71U	< 1e-05		< 1e-05		
A33U A53U A64U	< 1e-05		< 1e-05		
U31C G66C C67G	< 1e-05				
C34G C50U	< 1e-05		< 1e-05		< 1e-05
C34U G59C	< 1e-05	< 1e-05	< 1e-05	< 1e-05	< 1e-05
C34U G59U	< 1e-05	< 1e-05	< 1e-05	< 1e-05	< 1e-05
G32U C34U A42C	< 1e-05	< 1e-05			
A33U G38U G40U	< 1e-05				
G32U G62U	< 1e-05	< 1e-05	< 1e-05	< 1e-05	< 1e-05
U31G C61G U65C	< 1e-05				
A33U A53U C61A U69A	< 1e-05				
U31G G66A	0.000146 ± 2.4e-05	0.00151 ± 0.00042	0.00839 ± 0.0014		0.0011 ± 0.00039
C34U C58G U65G C70A	0.000236 ± 8.2e-05		0.000376 ± 0.00015		0.000187 ± 7.4e-05
G32C G35U	< 1e-05	< 1e-05	< 1e-05	< 1e-05	< 1e-05
C34A G37C G60U	< 1e-05		< 1e-05		
G32U A36U U46G A48U U56C G60U C61U	< 1e-05		< 1e-05		< 1e-05
G32U G35U	< 1e-05	< 1e-05	< 1e-05	< 1e-05	< 1e-05
U31G A39G	0.0004 ± 6e-05	0.0142 ± 0.0046		0.00122 ± 0.00027	0.00522 ± 0.0013
U31G A53U C58G G60A	< 1e-05		< 1e-05		
A33U G43U	< 1e-05	< 1e-05	< 1e-05	< 1e-05	
G32U G59U C71G	< 1e-05				< 1e-05
A33U G40A G62C	< 1e-05				
